{
  "source": "paper PMC3815950",
  "about": "(Microbial biotechnology, 2009)",
  "proteins": {"B1": {"name": "Thermotoga maritima acetyl xylan esterase AxeA (enzyme)", "chain": "MAFFDLPLEELKKYRPERYEEKDFDEFWEETLAESEKFPLDPVFERMESHLKTVEAYDVTFSGYRGQRIKGWLLVPKLEEEKLPCVVQYIGYNGGRGFPHDWLFWPSMGYICFVMDTRGQGSGWLKGDTPDYPEGPVDPQYPGFMTRGILDPRTYYYRRVFTDAVRAVEAAASFPQVDQERIVIAGGSQGGGIALAVSALSKKAKALLCDVPFLCHFRRAVQLVDTHPYAEITNFLKTHRDKEEIVFRTLSYFDGVNFAARAKIPALFSVGLMDNICPPSTVFAAYNYYAGPKEIRIYPYNNHEGGGSFQAVEQVKFLKKLFEKG"}},
  "key": {"SEC": {"target": "the molecule itself", "assay": "SEC"}, "[1]": {"substrate": "[H][C@]12SCC(COC(C)=O)=C(C(=O)O)N1C(=O)[C@H]2NC(=O)CCC[C@@H](N)C(=O)O", "assay": "acetate release, Michaelis-Menten", "assay_type": "biochemical, Thermotoga maritima", "details": "50 mM sodium phosphate pH 6.5, 60 °C"}},
  "note": "Where “and” joins values, the source holds several entries; their conditions need not be identical. Equal values may be shown once.",
  "data": [
    {"protein": "B1", "values": [
      {"measurement": "stoichiometry N", "setting": "SEC", "result": "6 and 2"},
      {"measurement": "Km", "setting": "[1]", "result": "4.18 ± 0.97", "unit": "mM"},
      {"measurement": "Vmax", "setting": "[1]", "result": 19.2, "unit": "µmol/min/mg"},
      {"measurement": "kcat", "setting": "[1]", "result": 11.8, "unit": "s⁻¹"},
      {"measurement": "kcat/Km", "setting": "[1]", "result": 2830, "unit": "M⁻¹ s⁻¹"}
    ]}
  ]
}
